Patent publication US20220133794A1 (Stanford University, published 2022)
Changes are numbered by the printed parent chain. Each block holds one binder with its values, some of them ahead of it.

Assays:
human CD93 [1] = target: T1, human CD93 (human, UniProt Q9NPY3 22-652); test: hybridoma supernatant screen by ELISA and flow cytometry
T1 construct: whole, on cells; Endogenous CD93 on AML cell lines
T1 sequence (looked up): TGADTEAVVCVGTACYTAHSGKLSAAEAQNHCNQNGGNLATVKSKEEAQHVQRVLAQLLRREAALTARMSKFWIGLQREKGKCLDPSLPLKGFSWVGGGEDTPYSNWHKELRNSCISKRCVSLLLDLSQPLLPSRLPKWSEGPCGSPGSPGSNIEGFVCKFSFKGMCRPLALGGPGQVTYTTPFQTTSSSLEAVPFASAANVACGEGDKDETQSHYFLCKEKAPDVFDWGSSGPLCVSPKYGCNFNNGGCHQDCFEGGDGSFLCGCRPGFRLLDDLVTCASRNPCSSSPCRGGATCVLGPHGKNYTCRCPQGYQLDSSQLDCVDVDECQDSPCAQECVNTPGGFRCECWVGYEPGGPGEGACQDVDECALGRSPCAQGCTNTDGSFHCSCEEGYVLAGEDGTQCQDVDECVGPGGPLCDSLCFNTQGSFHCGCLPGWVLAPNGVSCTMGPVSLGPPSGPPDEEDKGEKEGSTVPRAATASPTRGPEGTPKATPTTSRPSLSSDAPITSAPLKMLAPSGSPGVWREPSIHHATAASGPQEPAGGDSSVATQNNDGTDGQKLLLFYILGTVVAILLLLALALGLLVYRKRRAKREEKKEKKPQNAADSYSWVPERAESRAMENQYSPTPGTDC

human CD93 [2] = target: T1, human CD93; test: flow cytometry on AML cell lines, biotinylated antibody and streptavidin APC
Procedure: FIG. 8. CD93-specific CAR T cells produce cytokines when incubated with CD93 positive AML cell lines. A. AML cell lines were first treated with Fc block, then were stained with biotinylated HuF11 antibody followed by streptavidin APC, or with streptavidin APC only as a control. CD93 was highly expressed on many AML cell lines including THP-1, Kasumi, MOLM-13, NOMO-1, and OCI-AML3, and was not expressed on HEL-2. B. 1×10⁵ AML cells were incubated with 1×10⁵ mock, F11 28ζ LH, F11 28ζ H-L, F11 BBζ L-H, or F11 BBζ H-L CAR T cells for 24 h. At 24 h, supernatant was harvested and ELISA was performed for IFNγ and IL-2. Results are representative of at least three independent experiments.

- binding result (human CD93 [1]): binds
B1: mouse monoclonal anti-human CD93 antibody F11 (hybridoma clone F11) (antibody, V domains shown)
VH: EVQLQQSGPELVKPGASVKIPCKASGYTFTDYHMDWVKQSHGKSLEWIGDIDPYNGDTVFNQKFKGKATLTVDKSSSTAYMELRSLTSEDTAVYYCTRGGDYWGQGTTLTVSS
VL: DVVMTQTPLSLPVSLGDQASISCRSSQTLVHSNGNTYLHWYLQKPGQSPKLLIYKVSNRFSGVPDRFSGSGSGTDFTLKISRVEAEDLGVYFCSQSTHVPFTFGSGTKLEIK
notes: Mouse hybridoma antibody tested as supernatant; also called mouse F11; parental antibody

- binding result (human CD93 [2]): binds
B2: humanized F11-G1 (Hu F11-G1) (antibody, V domains shown)
VH: QVQLVQSGAEVKKPGASVKVSCKASGYTFTDYHMDWVKQAPGQGLEWIGDIDPYNGDTVFNQKFKGKATMTRDTSISTAYMELSRLRSDDTAVYYCTRGGDYWGQGTLVTVSS
VL: B1 VL with V2I, P12S, S14T, L15P, D17Q, Q18P, S48P, K50Q, L88V, S105Q
notes: The light chain was detected with anti-human kappa; also called humanized mCD93 antibody (F11); humanized anti-CD93 antibody
